Test results: patent publication US20260315592 (published 2026)

Biological target: ENPP3 (human)
Sequence (chain, as listed by the source): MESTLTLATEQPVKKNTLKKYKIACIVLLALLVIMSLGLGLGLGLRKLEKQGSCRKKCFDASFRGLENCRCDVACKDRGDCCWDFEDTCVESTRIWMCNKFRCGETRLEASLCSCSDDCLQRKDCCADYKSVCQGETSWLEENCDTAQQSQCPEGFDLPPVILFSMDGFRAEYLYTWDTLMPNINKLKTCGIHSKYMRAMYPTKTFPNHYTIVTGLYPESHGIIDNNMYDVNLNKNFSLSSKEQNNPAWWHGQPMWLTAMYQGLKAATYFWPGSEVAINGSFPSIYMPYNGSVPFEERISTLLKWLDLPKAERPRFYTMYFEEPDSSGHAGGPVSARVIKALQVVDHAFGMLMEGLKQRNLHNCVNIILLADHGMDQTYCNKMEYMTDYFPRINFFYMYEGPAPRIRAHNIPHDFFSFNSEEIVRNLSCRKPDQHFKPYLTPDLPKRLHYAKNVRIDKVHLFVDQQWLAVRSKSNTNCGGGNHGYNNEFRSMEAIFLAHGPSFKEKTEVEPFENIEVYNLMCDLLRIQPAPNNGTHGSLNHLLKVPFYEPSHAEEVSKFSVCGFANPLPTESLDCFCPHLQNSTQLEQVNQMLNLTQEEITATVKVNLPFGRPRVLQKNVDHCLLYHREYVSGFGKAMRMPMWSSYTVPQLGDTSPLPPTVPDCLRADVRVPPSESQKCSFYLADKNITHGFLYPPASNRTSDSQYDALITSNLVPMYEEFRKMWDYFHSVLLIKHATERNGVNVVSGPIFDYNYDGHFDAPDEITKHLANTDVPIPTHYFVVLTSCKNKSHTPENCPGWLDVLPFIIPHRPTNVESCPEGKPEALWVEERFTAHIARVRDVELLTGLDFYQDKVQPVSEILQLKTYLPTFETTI

Row | Kd | Binder
1 | 113 nM | SX13-10 (CAR48) (antibody) QLLESGGGLVKPGGSLRLSCAASGFTFSRYNMNWVRQAPGKGLEWVSFISGSSSYVYYADSVKGRFTISKDNAKNSLYLQMNSLRAEDTAVYYCARSGYCTSTTCYNYYYYYMDVWGKGTTVTVSSSGGGGSGGGGSGGGGSEIVLMQSPGTLSLSPGERATLSCRASQSVSNSYLAWYQQKPGQAPRLLIYGASSRATGIPDRFSGSGSGTDFTLTISRLEPEDFAVFYCQQFGSSPLTFGGGTKVEIK
2 | 23.5 nM | SX13-12 (CAR49) (antibody) QLVESGGGLVKPGGSLRLSCAASGFTFSDYSMNWVRQAPGKGLNWVASISSSSHYKYYADSVKGRFTISRDNAKNSLYLQMNSLRAEDTAVYYCARGIDFFDIWGQGTMVTVSSSGGGGSGGGGSGGGGSDIQLTQSPSFLSASVGDRVTITCRASQDINSYLVWYQQKPGKAPKLLIYTASTLQSGVPSRFSGSGSGTEFTLTIRSLQPEDFATYYCQQLNSYPRTFGQGTKVEIK
3 | 18.9 nM | SX13-1 (CAR42) (antibody) QLVESGGGLVKPGGSLRLSCAASGFTFSDYSMNWVRQAPGKGLEWVSSISSSSRYKYYADSMKGRFTISRDNAKNSLYLQMNSLRVEDTAVYYCTRGIDYFDYWGQGTLVTVSSSGGGGSGGGGSGGGGSDIQLTQSPSFLSASVGDRVTITCRASQDINNYLAWYQQKPGKAPKFLIHVASTLQSGVPSRFSGSGSGTEFTLTISSLQPEDSATYYCQQLNSYPRTFGQGTKVEIK
4 | 4.24 nM | SX13-7 (CAR46) (antibody) QLVESGGGLVKPGGSLRLSCAASGFTFSDYSMNWVRQAPGKGLEWVSSISSSSSYKKYADSVKGRLTISRDNAKNSLYLQMNSLRAEDTAVYYCARGIDYFDYWGQGTLVTVSSSGGGGSGGGGSGGGGSDIQLTQSPSFLSASVGDRVTITCRASQGISSNLAWYQQKPGKDPKVLIYGASTLQSGVPSRFSGSGSGTEFTLTISSLQPEDFATYYCQQLNSYPRTFGQGTKVEIK
